Reference: patent US20250179160A1 (OMEROS, published 2025)

Key:
[1] = biological target: T1, recombinant human Pro-Factor D (human, UniProt P00746 20-253); assay: capture ELISA: recombinant Factor D captured by plate-bound goat polyclonal AF1824; hybridoma supernatant diluted two-fold; OD450
T1 construct: also used for the endogenous pro-Factor D detected in 3MC patient serum; also called pro CFD; hPro-CFD
Description: Hybridoma supernatants were first screened for binding to immobilized recombinant human mature Factor D-His. […] ELISA plates were coated with polyclonal anti-human factor D antibody AF1824 (R&D Systems). Hybridoma supernatants were diluted two-fold in PBS, 0.05% Tween 20 (PBST). Supernatant from NS-1 myeloma cell line (NS-1 sup) was included as a matrix control to determine the level of assay background.

[2] = biological target: T1, recombinant human Pro-Factor D; assay: sandwich ELISA: Factor D titrated (ug/ml Df) on plate-bound goat polyclonal AF1824; purified recombinant human IgG4 antibody as detection antibody; OD450
Excerpt: An HRP-tagged anti-mouse secondary antibody followed by TMB substrate was used to develop the assay.

[3] = biological target: T2, recombinant human mature Factor D (human, UniProt P00746 26-253); assay: BLI (Octet ForteBio), 20 nM human IgG4 antibody on anti-human sensors, antigen 111 nM
T2 construct: also called mature CFD; hCFD
Description: Affinities of candidate antibodies to human mature-Factor-D versus human pro-Factor D were determined as follows.
Association and dissociation constants were determined by Octet Fortebio.

[4] = biological target: T2, recombinant human mature Factor D; assay: ELISA: antibody titrated 3-fold from 3 ug/ml on plate coated with 1 ug/ml recombinant human mature Factor D; HRP anti-mouse, rat or human secondary; OD450
[5] = biological target: T2, recombinant human mature Factor D; assay: capture ELISA: recombinant Factor D captured by plate-bound goat polyclonal AF1824; hybridoma supernatant diluted two-fold; HRP goat anti-mouse IgG Fc; OD450
Description: The specificity of anti-human pro-CFD hybridomas were further analyzed as follows. […] ELISA plates were coated with polyclonal anti-human factor D antibody AF1824 (R&D Systems). Hybridoma supernatants were diluted two-fold in PBS, 0.05% Tween 20 (PBST). […] Hybridoma supernatants and control samples were allowed to bind to captured pro or mature Factor D for one hour at room temperature. After washing three times with PBST, 100 μL/well of HRP-goat anti-mouse IgG Fc gamma secondary antibody (Jackson ImmunoResearch) diluted in PBST was added and incubated for 1 hour at room temperature. After washing three times with PBST, TMB substrate (ThermoFisher), 100 μL/well, was added. After 4 minutes the reaction was stopped with 50 μL/well of 1N H2SO₄, then read at 450 nm on a Biotek™ ELISA plate reader.

Binder | binding result [2] | Kd [3] [nM] | binding result [5] | other results
6G6, hybridoma supernatant (antibody, V domains shown, Mouse hybridoma antibody) VH: QITLKESGPGILQSSQTLSLTCSFSGISLTTSGMGVSWIRQPSGKGLEWLAHIYWDDEKHYHPSLKSRLTISKDASRNQVFFRILSVDTADTATYYCALRYYGYRSFMDYWGQGTSVTVSS VL: DVLMTQSPLSLPVSLGDQASIFCRSNQSIVHSNGNTYFEWYLQKPGQSPKLLIYKVSNRFSGVPDRFSGSGSGTDFTLRISRVEAEDLGVYYCFQGSHVPPTFGGGTKLEIKR |  |  |  | binding result [1]: no binding
49G3, purified recombinant, human IgG4 (antibody, V domains shown, Mouse variable regions on human IgG4 (S228P) and human kappa constant regions) VH: QVTLKESGPGILQSSQTLSLTCSFSGISLSSSGMGVSWIRQPSGKGLEWLAHIYWDDEKHYNPSLKSRLTISKDASRNQIFLKIISVDTADTATYYCALRYYGYNYVMHYWGQGTSVTVSS VL: DVLMTQTPLSLPVSLGDQASISCRSSQSILHSNGNTYFEWYLQKPGQSPKLLIYKVSNRFSGVPDRFSGSGSGTDFTLKISRVEAEDLGVYYCFQGSHVPPTFGGGTKLEIKR | no binding | 2.3 |  | 
27B3, purified recombinant, human IgG4 (antibody, V domains shown, Mouse variable regions on human IgG4 (S228P) and human kappa constant regions) VH: QVTLKESGPGILQSSQTLSLTCSFSGISLNISGMGVSWIRQPSGKGLEWLAHIYWDDEKHYNPSLKRRLTISKDASRNQVFFRISSVDSADTATYYCALRYYGYGSIMDYWGHGTSVTVSS VL: DVLMTQTPLSLPVSLGDQASISCRSSQSIVHSNGNTYFEWYLQKPGQSPKLLIYKVSNRFSGVPDRFSGSGSGTDFTLKISRVEAEDLGVYYCFQGSHVPPTFGGGTKLEIKR | no binding | 24.1 |  | 
27B3, hybridoma supernatant (antibody, V domains shown, Mouse hybridoma antibody) VH: QVTLKESGPGILQSSQTLSLTCSFSGISLNISGMGVSWIRQPSGKGLEWLAHIYWDDEKHYNPSLKRRLTISKDASRNQVFFRISSVDSADTATYYCALRYYGYGSIMDYWGHGTSVTVSS VL: DVLMTQTPLSLPVSLGDQASISCRSSQSIVHSNGNTYFEWYLQKPGQSPKLLIYKVSNRFSGVPDRFSGSGSGTDFTLKISRVEAEDLGVYYCFQGSHVPPTFGGGTKLEIKR |  |  |  | binding result [1]: no binding
49G3, hybridoma supernatant (antibody, V domains shown, Mouse hybridoma antibody) VH: QVTLKESGPGILQSSQTLSLTCSFSGISLSSSGMGVSWIRQPSGKGLEWLAHIYWDDEKHYNPSLKSRLTISKDASRNQIFLKIISVDTADTATYYCALRYYGYNYVMHYWGQGTSVTVSS VL: DVLMTQTPLSLPVSLGDQASISCRSSQSILHSNGNTYFEWYLQKPGQSPKLLIYKVSNRFSGVPDRFSGSGSGTDFTLKISRVEAEDLGVYYCFQGSHVPPTFGGGTKLEIKR |  |  |  | binding result [1]: no binding
6G6, purified recombinant, human IgG4 (antibody, V domains shown, Mouse variable regions on human IgG4 (S228P) and human kappa constant regions) VH: QITLKESGPGILQSSQTLSLTCSFSGISLTTSGMGVSWIRQPSGKGLEWLAHIYWDDEKHYHPSLKSRLTISKDASRNQVFFRILSVDTADTATYYCALRYYGYRSFMDYWGQGTSVTVSS VL: DVLMTQSPLSLPVSLGDQASIFCRSNQSIVHSNGNTYFEWYLQKPGQSPKLLIYKVSNRFSGVPDRFSGSGSGTDFTLRISRVEAEDLGVYYCFQGSHVPPTFGGGTKLEIKR | no binding | 14.3 |  | 
14A11, purified recombinant, human IgG4 (antibody, Mouse variable regions on human IgG4 (S228P) and human kappa constant regions) heavy: not shown light: DVLMTQSPLSLPVSLGDQASIFCRSNQSIVHSNGNTYFEWYLQKPGQSPKLLIYKVSNRFSGVPDRFSGSGSGTDFTLRISRVEAEDLGIYYCFQGSHVPPTFGGGTKLEIKRTVAAPSVFIFPPSDEQLKSGTASVVCLLNNFYPREAKVQWKVDNALQSGNSQESVTEQDSKDSTYSLSSTLTLSKADYEKHKVYACEVTHQGLSSPVTKSFNRGEC | no binding | 9.77 |  | 
10G1, hybridoma supernatant (antibody, V domains shown, Mouse hybridoma antibody) VH: QVTLKESGPGILQSSQTLSLTCSFSGVSLSSSGMGVSWIRQPSGKGLEWLAHIYWDDEKHYNPSLKSRLTISKGASRNQVFLKIISVDTADTATYYCALRYYGYNSIMHYWGQGASVTVSS VL: DVLMTQTPLSLPVSLGDQASISCRSSESIVHSNGNTYLEWYLQKPGQSPKLLIYKVYNRFSGVPDRFSGSGSGTDFTLKISRVEAEDLGVYYCFQGSHVPPTFGGGTKLEIKR |  |  |  | binding result [1]: no binding
10G1, purified recombinant, human IgG4 (antibody, V domains shown, Mouse variable regions on human IgG4 (S228P) and human kappa constant regions) VH: QVTLKESGPGILQSSQTLSLTCSFSGVSLSSSGMGVSWIRQPSGKGLEWLAHIYWDDEKHYNPSLKSRLTISKGASRNQVFLKIISVDTADTATYYCALRYYGYNSIMHYWGQGASVTVSS VL: DVLMTQTPLSLPVSLGDQASISCRSSESIVHSNGNTYLEWYLQKPGQSPKLLIYKVYNRFSGVPDRFSGSGSGTDFTLKISRVEAEDLGVYYCFQGSHVPPTFGGGTKLEIKR | no binding | 0.731 |  | 
58F5, hybridoma supernatant (antibody, V domains shown, Mouse hybridoma antibody; also called 58GF5) VH: QVTLKESGPGILQSSQTLSLTCSFSGISLNTSIMGVSWIRQPSGKGLEWLAHIYWDDEKHYNPSLKSRLTISKDASRNQVFLKIISVDTADTATYYCALRYYGYNYVMHYWGQGTSVTVSS VL: DVLMTQTPLSLPVSLGDQASISCRSSQSIVHSNGNTYLEWYLQKPGQSPKLLIYKVSNRFSGVPDRFSGSGSGTDFTLKISRVEADDLGVYYCFQGSHVPPTFGGGTKLEIKR |  |  |  | binding result [1]: no binding
58F5, purified recombinant, human IgG4 (antibody, V domains shown, Mouse variable regions on human IgG4 (S228P) and human kappa constant regions) VH: QVTLKESGPGILQSSQTLSLTCSFSGISLNTSIMGVSWIRQPSGKGLEWLAHIYWDDEKHYNPSLKSRLTISKDASRNQVFLKIISVDTADTATYYCALRYYGYNYVMHYWGQGTSVTVSS VL: DVLMTQTPLSLPVSLGDQASISCRSSQSIVHSNGNTYLEWYLQKPGQSPKLLIYKVSNRFSGVPDRFSGSGSGTDFTLKISRVEADDLGVYYCFQGSHVPPTFGGGTKLEIKR | no binding | < 0.001 |  | 
1F9, purified recombinant, human IgG4 (antibody, V domains shown, Mouse variable regions on human IgG4 (S228P) and human kappa constant regions) VH: EVKLEESGGGLVQPGGSMKLSCVASGFTFGSYWMSWVRQSPEKGLEWVAEIRLKSDNYAAHYAESVKGKFTISRDDSKSRLYLQMNSLRGEDTGIYYCTNAWFASWGQGTLVTVSA VL: DIVMSQSPSSLTVSVGEKVTMSCMSSQSLLYSKDQKNYLAWYQQKPGQSPTLLIYWASTRESGVPDRFTGSGSGTDFTLTISSVKAEDLAVYYCLQYYTYPYTFGGGTKLEIKR |  |  |  | binding result [4]: no binding (tested: 3 ug/ml)
18F5, hybridoma supernatant (antibody, V domains shown, Mouse hybridoma antibody) VH: EVKLEESGGGLVQPGGSMKLSCVASGFTFGNYWMSWVRQSPEKGLEWVAEIRLKSDNYATHYAESVKGKFTISRDDSKSRLYLQMNSLRGEDTGLYYCTNAWFASWGQGTLVTVSA VL: DIVMSQSPSSLAVSVGEKVTMSCMSSQSLLYSKDQKNYLAWYQQKPGQSPKLLIYWASTRESGVPDRFTGSGSGTDFTLTISSVKAEDLAVYYCLQYYTYPYTFGGGTKLEIKR |  |  | no binding | 
20A1, hybridoma supernatant (antibody, V domains shown, Mouse hybridoma antibody) VH: EVKLEESGGGLVQPGGSMKLSCIASGFTFSTYWMSWVRQSPEKGLEWVAEIRLKSENYATYYAESVKGKFIISRDDSKSRLYLQMNSLRAEDTGIYYCTNAWFANWGQGTLVTVSA VL: DIVMSQSPSSLVVSVGEKVTMSCKSSQNLLYSRDQKNYLAWYQQKPGQSPNLLIYWASTRESGVPDRFTGSGSGTDFSLTISSVKAEDLAVYYCLQYYSYPYTFGGGTKLEMKR |  |  | no binding | 
20A1, purified recombinant, human IgG4 (antibody, V domains shown, Mouse variable regions on human IgG4 (S228P) and human kappa constant regions) VH: EVKLEESGGGLVQPGGSMKLSCIASGFTFSTYWMSWVRQSPEKGLEWVAEIRLKSENYATYYAESVKGKFIISRDDSKSRLYLQMNSLRAEDTGIYYCTNAWFANWGQGTLVTVSA VL: DIVMSQSPSSLVVSVGEKVTMSCKSSQNLLYSRDQKNYLAWYQQKPGQSPNLLIYWASTRESGVPDRFTGSGSGTDFSLTISSVKAEDLAVYYCLQYYSYPYTFGGGTKLEMKR |  |  |  | binding result [4]: no binding (tested: 3 ug/ml)
2A4, hybridoma supernatant (antibody, V domains shown, Mouse hybridoma antibody) VH: EVKLEESGGGLVQPGGSMKLSCVASGFTFSTYWMSWVRQSPEKGLEWVAEIRLKSDNYATHYTESVKGKFTISRDDSKSRLYLQMNSLRVEDTGIYYCTNAWFAYWGQGTLVTVSA VL: DIVMSQSPSSLAVSVGEKFTMSCKSSQSLLYSRDQKNYLAWYQQQPGQSPKLLIYWASTRESGVPDRFTGSGSGTDFTLTISSVKTEDLAVYYCLQYYSYPYTFGGGTKLEIKR |  |  | no binding | 
1F9, hybridoma supernatant (antibody, V domains shown, Mouse hybridoma antibody) VH: EVKLEESGGGLVQPGGSMKLSCVASGFTFGSYWMSWVRQSPEKGLEWVAEIRLKSDNYAAHYAESVKGKFTISRDDSKSRLYLQMNSLRGEDTGIYYCTNAWFASWGQGTLVTVSA VL: DIVMSQSPSSLTVSVGEKVTMSCMSSQSLLYSKDQKNYLAWYQQKPGQSPTLLIYWASTRESGVPDRFTGSGSGTDFTLTISSVKAEDLAVYYCLQYYTYPYTFGGGTKLEIKR |  |  | no binding | 
13A10, hybridoma supernatant (antibody, V domains shown, Mouse hybridoma antibody) VH: DVQLQESGPGLVKPSQSLSLTCTVTGYSITSDYAWNWIRQFPGNKLEWMGYISYIGGIGYNPSLKSRISITRDTSKNQFFLHLNSVTTGDTATYYCARNGAMDFWGQGISVTVSS VL: DIVLTQSPASLAVSLGQRATISCKASQSVDYDGDSYMNWYQQKPGQPPKLLIYDASNLESGIPARFSGSGSGTDFTLNIHPVEEEDAATYYCQQSNEAPWTFGGGTKLEIKR |  |  | no binding | 
21H1, hybridoma supernatant (antibody, V domains shown, Mouse hybridoma antibody) VH: DVQLQESGPGLVKPSQSLSLTCTVTGYSITSDYAWNWIRQFPGNKLEWMGYISYSGSTGYSPSLKSRISITRDTSKNQFFLHLNSVTTGDTATYYCARNGAMDYWGQGISVTVSS VL: DIVLTQSPASLAVSLGQRATISCKASQSVDYDGDSYMNWYQQKPGQPPKLLIYDASTLESGIPARFSGSGSGTDFTLNIHPVEEEDAATYYCQQNYEAPWTFGGGTKLEIKR |  |  | no binding | 
